Target: amyloid-beta oligomers prepared from synthetic Aβ1-42 (UniProt P05067)
Assay: cell-based or functional assay

Chain of UniProt P05067 (P05067 672-713 limits assumed): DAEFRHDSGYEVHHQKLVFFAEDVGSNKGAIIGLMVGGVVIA

- AβO binding to dendrites in hippocampal neurons (NU4 immunoreactivity): 50 % decrease
Substance: NUsc1 scFv expressed and secreted by neurons transduced with the AAV9 vector AAV-NUsc1

Reference: patent publication US11541086
